Measured values published in article PMC12135187, “A role for pH dynamics regulating transcription factor DNA-binding selectivity”.

Tests used:
Conditions in all cases: protein: recombinant; tags: N-terminal GST (pGEX-6P-2); label: 6-FAM; blunt
[1] = target: T1, FOXC2 DBD H122K (UniProt Q99958 72-172, H122K); assay: fluorescence anisotropy; pH 7.0; 20 mM HEPES, 140 mM KCl, 0.05 mM TCEP-HCl, pH 7.0 or 7.5 (pH titration 6.8-8.2), room temperature 30 min, 7.5 nM FAM-DNA
T1 sequence: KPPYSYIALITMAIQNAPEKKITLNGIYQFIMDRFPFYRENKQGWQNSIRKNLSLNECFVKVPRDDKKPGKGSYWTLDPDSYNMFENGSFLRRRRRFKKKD

[2] = target: T1, FOXC2 DBD H122K; assay: fluorescence anisotropy; pH 7.5; 20 mM HEPES, 140 mM KCl, 0.05 mM TCEP-HCl, pH 7.0 or 7.5 (pH titration 6.8-8.2), room temperature 30 min, 7.5 nM FAM-DNA
[3] = target: T2, FOXC2 DBD H122N (UniProt Q99958 72-172, H122N); assay: fluorescence anisotropy; pH 7.0; 20 mM HEPES, 140 mM KCl, 0.05 mM TCEP-HCl, pH 7.0 or 7.5 (pH titration 6.8-8.2), room temperature 30 min, 7.5 nM FAM-DNA
T2 sequence: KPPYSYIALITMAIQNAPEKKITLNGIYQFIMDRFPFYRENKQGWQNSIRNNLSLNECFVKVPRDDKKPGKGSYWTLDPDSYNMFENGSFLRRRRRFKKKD

[4] = target: T3, FOXM1 DBD WT (UniProt Q08050 222-360); assay: fluorescence anisotropy; pH 7.0; higher affinity than at pH 7.5; 20 mM HEPES, 140 mM KCl, 0.05 mM TCEP-HCl, pH 7.0 or 7.5 (pH titration 6.8-8.2), room temperature 30 min, 7.5 nM FAM-DNA
T3 sequence: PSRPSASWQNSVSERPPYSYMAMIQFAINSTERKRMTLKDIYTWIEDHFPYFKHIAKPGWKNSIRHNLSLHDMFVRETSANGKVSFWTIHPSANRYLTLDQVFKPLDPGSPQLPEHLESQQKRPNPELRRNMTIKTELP

[5] = target: T4, FOXC2 DBD WT (UniProt Q99958 72-172); assay: as above
T4 sequence: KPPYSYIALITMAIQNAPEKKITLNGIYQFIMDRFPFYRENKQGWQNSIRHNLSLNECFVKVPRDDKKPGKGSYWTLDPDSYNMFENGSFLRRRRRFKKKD

[6] = target: T5, FOXN1 DBD WT (UniProt O15353 270-366); assay: as above
T5 sequence: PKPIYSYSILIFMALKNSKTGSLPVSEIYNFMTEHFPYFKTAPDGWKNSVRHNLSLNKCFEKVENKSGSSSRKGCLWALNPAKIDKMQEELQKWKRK

[7] = target: T6, FOXM1 DBD H287K (UniProt Q08050 222-360, H287K); assay: fluorescence anisotropy; pH 7.0; 20 mM HEPES, 140 mM KCl, 0.05 mM TCEP-HCl, pH 7.0 or 7.5 (pH titration 6.8-8.2), room temperature 30 min, 7.5 nM FAM-DNA
T6 sequence: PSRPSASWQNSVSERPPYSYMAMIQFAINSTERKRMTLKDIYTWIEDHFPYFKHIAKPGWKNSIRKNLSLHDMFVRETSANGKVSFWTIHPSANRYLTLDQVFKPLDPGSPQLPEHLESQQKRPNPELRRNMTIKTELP

[8] = target: T6, FOXM1 DBD H287K; assay: fluorescence anisotropy; pH 7.5; 20 mM HEPES, 140 mM KCl, 0.05 mM TCEP-HCl, pH 7.0 or 7.5 (pH titration 6.8-8.2), room temperature 30 min, 7.5 nM FAM-DNA
[9] = target: T2, FOXC2 DBD H122N; assay: fluorescence anisotropy; pH 7.5; similar to WT at pH 7.5; 20 mM HEPES, 140 mM KCl, 0.05 mM TCEP-HCl, pH 7.0 or 7.5 (pH titration 6.8-8.2), room temperature 30 min, 7.5 nM FAM-DNA

B1: FkhP (dsDNA)
DNA 1: CCATAAACAAC
DNA 2: GTTGTTTATGG
In the case of B1, the Ka [1] is reported as 0.86 ± 0.15 μM (as printed; KA = 1/KD, so presumably μM^-1), the Ka [2] is reported as 0.91 ± 0.08 μM (as printed; KA = 1/KD, so presumably μM^-1) and the Ka [3] is reported as 0.14 ± 0.03 μM (as printed; KA = 1/KD, so presumably μM^-1). B1: binds [4]; binds [5]; binds [6]. For the same binder, the Ka [7] was 4.1 ± 0.81 μM (as printed; KA = 1/KD, so presumably μM^-1), the Ka [8] was 1.8 ± 0.27 μM (as printed; KA = 1/KD, so presumably μM^-1) and the Ka [9] was 0.1 ± 0.01 μM (as printed; KA = 1/KD, so presumably μM^-1).
